One assay deals with T1, GIPR L261H (Homo sapiens, UniProt P48546, L261H).
T1 construct: host or cells: HEK293
T1 sequence (P48546 22-466 L261H): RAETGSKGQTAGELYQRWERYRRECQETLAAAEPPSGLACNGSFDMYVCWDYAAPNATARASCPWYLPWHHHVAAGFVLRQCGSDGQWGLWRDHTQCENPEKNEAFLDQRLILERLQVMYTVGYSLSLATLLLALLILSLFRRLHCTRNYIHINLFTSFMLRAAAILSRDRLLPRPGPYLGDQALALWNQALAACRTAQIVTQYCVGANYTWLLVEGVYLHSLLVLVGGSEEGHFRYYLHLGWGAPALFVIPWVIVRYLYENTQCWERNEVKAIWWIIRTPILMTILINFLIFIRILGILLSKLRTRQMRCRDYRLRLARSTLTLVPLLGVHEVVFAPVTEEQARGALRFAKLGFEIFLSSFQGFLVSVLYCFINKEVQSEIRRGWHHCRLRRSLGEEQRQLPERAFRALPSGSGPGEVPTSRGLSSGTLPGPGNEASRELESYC
Nature of the assay: cAMP accumulation. Type of assay: cell-based.

Assay [1] relates to GIPR variants (groups). Kind of assay: cAMP accumulation. The class given is cell-based, human. The following applies: for In vitro groups (cAMP): cAMP part of the in vitro group; for percentage_camp: cAMP production compared with WT; for Beta, cAMP: in vitro cAMP production per GIPR variant.
Experimental: HEK293 (CRL-1573, American Type Culture Collection) and β-arrestin 1/2 knockout cells, generated from HEK293A[48], were used for cAMP measurement, homologues competition binding and β-arrestin 2 recruitment. For the internalization assay, endosomal signalling and basal receptor localization experiments, HEK293A (R70507, Thermo Fisher) cells were used. Both cell lines were cultured at 5% CO2 at 37 °C in Roswell Park Memorial Institute GlutaMAX-I supplemented with 10% fetal bovine serum, 180 units ml^−1 penicillin, and 45 g ml^−1 streptomycin. For the cAMP and binding experiments, cells were transfected with the calcium phosphate precipitation method[49]. The polyethyleneimine (PEI) transfection method was used for the β-arrestin 2 recruitment assays[50], endosomal signalling and basal receptor localization assays, while the lipofectamine transfection method was used for the internalization assay.
(§1) cAMP production was measured with the DiscoverX Hithunter cAMP assay according to the manufacturer’s protocol (DiscoverX). […] On the day of the assay, the cells were washed twice with HEPES-buffered saline (HBS) and incubated with HBS and 1 mM 3-isobutyl-1-methylxanthine for 30 min at 37 °C. […] After the incubation, the assay medium was removed from the plate and the cells were washed with 30 µl PBS and treated with 40 µl enzyme donor–lysis buffer–chemiluminescent reagents and 10 µl cAMP antibodies for 60 min before 40 µl enzyme acceptor solution added. After a 3-h incubation on a shaking table in the dark, the cAMP accumulation was measured based on luminescence with a Perkin Elmer EnVision 2104 Multilabel Microplate Reader.
For cAMP accumulation, the data were fitted as a sigmoidal curve with a Hill slope of 1; for homologous competition binding, the data were fitted as a sigmoidal curve with a Hill slope of −1.
Assay [2] relates to GIPR variants (groups). Nature of the assay: β-arrestin 2 recruitment (BRET).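 For all read-outs here: BRET readout of β-arrestin 2 recruitment in transiently transfected HEK293 cells expressing WT GIPR or a GIPR variant plus GPCR kinase 2, Rluc8 donor and citrine acceptor.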 The settings on record: for In vitro groups (β-arrestin): arr part of the in vitro group; for Beta, Barr: in vitro β-arrestin recruitment per GIPR variant.
The target of a further assay is T2, GIPR E291K (Homo sapiens, UniProt P48546, E291K).
T2 construct: host or cells: HEK293
T2 sequence (P48546 22-466 E291K): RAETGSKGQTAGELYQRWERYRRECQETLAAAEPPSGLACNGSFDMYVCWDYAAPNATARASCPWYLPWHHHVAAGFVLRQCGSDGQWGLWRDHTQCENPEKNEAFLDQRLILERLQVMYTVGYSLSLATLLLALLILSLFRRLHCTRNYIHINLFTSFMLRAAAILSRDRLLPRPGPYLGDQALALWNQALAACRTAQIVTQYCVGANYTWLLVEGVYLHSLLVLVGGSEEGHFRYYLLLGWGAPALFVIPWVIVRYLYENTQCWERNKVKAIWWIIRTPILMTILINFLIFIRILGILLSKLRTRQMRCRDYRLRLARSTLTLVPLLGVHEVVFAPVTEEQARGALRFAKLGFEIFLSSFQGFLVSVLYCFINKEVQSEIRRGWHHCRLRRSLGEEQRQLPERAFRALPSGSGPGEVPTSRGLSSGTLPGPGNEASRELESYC
Nature of the assay: cAMP accumulation. The class given is cell-based. On the technique in general: Cyclic AMP is a second messenger, typically raised through Gs and lowered through Gi signalling.

In the next assay the target is T3, GIPR E288G (Homo sapiens, UniProt P48546, E288G).
T3 construct: host or cells: HEK293
T3 sequence (P48546 22-466 E288G): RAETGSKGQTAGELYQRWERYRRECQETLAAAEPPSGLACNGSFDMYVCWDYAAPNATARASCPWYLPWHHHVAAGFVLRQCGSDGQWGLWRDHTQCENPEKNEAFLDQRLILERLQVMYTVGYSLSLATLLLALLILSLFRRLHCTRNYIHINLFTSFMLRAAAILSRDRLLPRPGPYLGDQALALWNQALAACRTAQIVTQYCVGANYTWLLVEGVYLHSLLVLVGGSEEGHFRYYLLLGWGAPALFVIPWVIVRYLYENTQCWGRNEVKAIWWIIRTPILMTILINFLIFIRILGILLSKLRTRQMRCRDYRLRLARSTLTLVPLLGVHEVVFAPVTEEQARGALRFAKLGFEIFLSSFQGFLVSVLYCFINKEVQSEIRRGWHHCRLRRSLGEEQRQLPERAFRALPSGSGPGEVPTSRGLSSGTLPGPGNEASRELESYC
Kind of assay: cAMP accumulation. Type of assay: cell-based.

The next assay has as its target T4, GIPR I299V (Homo sapiens, UniProt P48546, I299V).
T4 construct: host or cells: HEK293
T4 sequence (P48546 22-466 I299V): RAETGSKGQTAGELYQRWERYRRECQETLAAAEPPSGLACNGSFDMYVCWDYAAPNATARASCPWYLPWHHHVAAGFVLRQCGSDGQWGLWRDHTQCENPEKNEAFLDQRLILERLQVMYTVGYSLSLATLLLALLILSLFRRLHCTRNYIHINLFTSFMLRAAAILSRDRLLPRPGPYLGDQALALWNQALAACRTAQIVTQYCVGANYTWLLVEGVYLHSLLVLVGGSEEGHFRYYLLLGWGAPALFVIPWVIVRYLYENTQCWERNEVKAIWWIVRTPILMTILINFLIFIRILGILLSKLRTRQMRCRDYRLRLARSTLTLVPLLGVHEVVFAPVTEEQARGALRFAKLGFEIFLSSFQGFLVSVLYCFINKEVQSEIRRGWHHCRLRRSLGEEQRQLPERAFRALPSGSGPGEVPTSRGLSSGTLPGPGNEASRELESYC
Nature of the assay: cAMP accumulation. Type of assay: cell-based.

In the next assay the target is T5, GIPR A294V (Homo sapiens, UniProt P48546, A294V).
T5 construct: host or cells: HEK293
T5 sequence (P48546 22-466 A294V): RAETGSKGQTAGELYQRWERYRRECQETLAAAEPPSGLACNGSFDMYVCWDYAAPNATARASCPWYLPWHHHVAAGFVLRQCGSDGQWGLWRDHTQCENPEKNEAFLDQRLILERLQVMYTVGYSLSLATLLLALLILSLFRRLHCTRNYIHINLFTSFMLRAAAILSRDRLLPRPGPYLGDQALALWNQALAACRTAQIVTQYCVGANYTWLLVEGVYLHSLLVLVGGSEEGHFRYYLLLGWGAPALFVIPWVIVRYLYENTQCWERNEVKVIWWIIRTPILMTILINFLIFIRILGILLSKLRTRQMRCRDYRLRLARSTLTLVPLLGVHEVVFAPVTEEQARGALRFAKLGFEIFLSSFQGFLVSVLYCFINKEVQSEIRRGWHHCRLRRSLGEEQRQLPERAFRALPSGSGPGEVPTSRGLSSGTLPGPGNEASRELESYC
Nature of the assay: cAMP accumulation. The class given is cell-based.

Experimental for GIPR A294V: (§2) HEK293 (CRL-1573, American Type Culture Collection) and β-arrestin 1/2 knockout cells, generated from HEK293A[48], were used for cAMP measurement, homologues competition binding and β-arrestin 2 recruitment. […] Both cell lines were cultured at 5% CO2 at 37 °C in Roswell Park Memorial Institute GlutaMAX-I supplemented with 10% fetal bovine serum, 180 units ml^−1 penicillin, and 45 g ml^−1 streptomycin. For the cAMP and binding experiments, cells were transfected with the calcium phosphate precipitation method[49].
(§3) cAMP production was measured with the DiscoverX Hithunter cAMP assay according to the manufacturer’s protocol (DiscoverX). […] On the day of the assay, the cells were washed twice with HEPES-buffered saline (HBS) and incubated with HBS and 1 mM 3-isobutyl-1-methylxanthine for 30 min at 37 °C. […] After the incubation, the assay medium was removed from the plate and the cells were washed with 30 µl PBS and treated with 40 µl enzyme donor–lysis buffer–chemiluminescent reagents and 10 µl cAMP antibodies for 60 min before 40 µl enzyme acceptor solution added. After a 3-h incubation on a shaking table in the dark, the cAMP accumulation was measured based on luminescence with a Perkin Elmer EnVision 2104 Multilabel Microplate Reader. […]
Experimental for GIPR E288G: as §2, §1
Experimental for GIPR E291K: as §2, §3
Experimental for GIPR I299V: as §2, §3
Experimental for GIPR L261H: as §2, §1

B1: L261H (protein)
chain: RAETGSKGQTAGELYQRWERYRRECQETLAAAEPPSGLACNGSFDMYVCWDYAAPNATARASCPWYLPWHHHVAAGFVLRQCGSDGQWGLWRDHTQCENPEKNEAFLDQRLILERLQVMYTVGYSLSLATLLLALLILSLFRRLHCTRNYIHINLFTSFMLRAAAILSRDRLLPRPGPYLGDQALALWNQALAACRTAQIVTQYCVGANYTWLLVEGVYLHSLLVLVGGSEEGHFRYYLHLGWGAPALFVIPWVIVRYLYENTQCWERNEVKAIWWIIRTPILMTILINFLIFIRILGILLSKLRTRQMRCRDYRLRLARSTLTLVPLLGVHEVVFAPVTEEQARGALRFAKLGFEIFLSSFQGFLVSVLYCFINKEVQSEIRRGWHHCRLRRSLGEEQRQLPERAFRALPSGSGPGEVPTSRGLSSGTLPGPGNEASRELESYC
Take B1: the “Efficacy at 100pmol (cAMP)” value with GIPR L261H worked out at 0.4533. In the assay with GIPR variants (groups) [1], the “In vitro groups (cAMP)” value is listed as “LoF_camp”; the percentage_camp was <50% cAMP; the “Beta, cAMP” value is reported as 0.4533. Besides, in the assay on GIPR variants (groups) [2], the “In vitro groups (β-arrestin)” value was “LoF_arr” and the “Beta, Barr” value was found to be 0.

B2: E291K (protein)
chain: RAETGSKGQTAGELYQRWERYRRECQETLAAAEPPSGLACNGSFDMYVCWDYAAPNATARASCPWYLPWHHHVAAGFVLRQCGSDGQWGLWRDHTQCENPEKNEAFLDQRLILERLQVMYTVGYSLSLATLLLALLILSLFRRLHCTRNYIHINLFTSFMLRAAAILSRDRLLPRPGPYLGDQALALWNQALAACRTAQIVTQYCVGANYTWLLVEGVYLHSLLVLVGGSEEGHFRYYLLLGWGAPALFVIPWVIVRYLYENTQCWERNKVKAIWWIIRTPILMTILINFLIFIRILGILLSKLRTRQMRCRDYRLRLARSTLTLVPLLGVHEVVFAPVTEEQARGALRFAKLGFEIFLSSFQGFLVSVLYCFINKEVQSEIRRGWHHCRLRRSLGEEQRQLPERAFRALPSGSGPGEVPTSRGLSSGTLPGPGNEASRELESYC
In the case of B2, in the assay with GIPR E291K, the “Efficacy at 100pmol (cAMP)” value is on record as 0.3479. In the assay on GIPR variants (groups) [1], the “In vitro groups (cAMP)” value is reported as “LoF_camp”; the percentage_camp was <50% cAMP; the “Beta, cAMP” value was determined as 0.3479. For the same molecule, in the assay on GIPR variants (groups) [2], the “In vitro groups (β-arrestin)” value is given as “LoF_arr” and the “Beta, Barr” value stood at 0.1982.

B3: E288G (protein)
chain: RAETGSKGQTAGELYQRWERYRRECQETLAAAEPPSGLACNGSFDMYVCWDYAAPNATARASCPWYLPWHHHVAAGFVLRQCGSDGQWGLWRDHTQCENPEKNEAFLDQRLILERLQVMYTVGYSLSLATLLLALLILSLFRRLHCTRNYIHINLFTSFMLRAAAILSRDRLLPRPGPYLGDQALALWNQALAACRTAQIVTQYCVGANYTWLLVEGVYLHSLLVLVGGSEEGHFRYYLLLGWGAPALFVIPWVIVRYLYENTQCWGRNEVKAIWWIIRTPILMTILINFLIFIRILGILLSKLRTRQMRCRDYRLRLARSTLTLVPLLGVHEVVFAPVTEEQARGALRFAKLGFEIFLSSFQGFLVSVLYCFINKEVQSEIRRGWHHCRLRRSLGEEQRQLPERAFRALPSGSGPGEVPTSRGLSSGTLPGPGNEASRELESYC
Turning to B3, the “Efficacy at 100pmol (cAMP)” value in the assay with GIPR E288G turned out to be 0.04101. Further, in the assay with GIPR variants (groups) [1], the “In vitro groups (cAMP)” value is on record as “LoF_camp”; the percentage_camp is reported as <50% cAMP; the “Beta, cAMP” value worked out at 0.04101. In the assay with GIPR variants (groups) [2], the “In vitro groups (β-arrestin)” value is given as “LoF_arr” and the “Beta, Barr” value amounted to 0.09099.

B4: I299V (protein)
chain: RAETGSKGQTAGELYQRWERYRRECQETLAAAEPPSGLACNGSFDMYVCWDYAAPNATARASCPWYLPWHHHVAAGFVLRQCGSDGQWGLWRDHTQCENPEKNEAFLDQRLILERLQVMYTVGYSLSLATLLLALLILSLFRRLHCTRNYIHINLFTSFMLRAAAILSRDRLLPRPGPYLGDQALALWNQALAACRTAQIVTQYCVGANYTWLLVEGVYLHSLLVLVGGSEEGHFRYYLLLGWGAPALFVIPWVIVRYLYENTQCWERNEVKAIWWIVRTPILMTILINFLIFIRILGILLSKLRTRQMRCRDYRLRLARSTLTLVPLLGVHEVVFAPVTEEQARGALRFAKLGFEIFLSSFQGFLVSVLYCFINKEVQSEIRRGWHHCRLRRSLGEEQRQLPERAFRALPSGSGPGEVPTSRGLSSGTLPGPGNEASRELESYC
As to B4, in the assay with GIPR I299V, the “Efficacy at 100pmol (cAMP)” value is listed as 1.005. For the same molecule, in the assay on GIPR variants (groups) [1], the “In vitro groups (cAMP)” value is reported as “WT-like_camp”; the percentage_camp was >50% cAMP; the “Beta, cAMP” value was 1.005. For the same molecule, in the assay on GIPR variants (groups) [2], the “In vitro groups (β-arrestin)” value is on record as “WT-like_arr” and the “Beta, Barr” value is 0.7578.

B5: A294V (protein)
chain: RAETGSKGQTAGELYQRWERYRRECQETLAAAEPPSGLACNGSFDMYVCWDYAAPNATARASCPWYLPWHHHVAAGFVLRQCGSDGQWGLWRDHTQCENPEKNEAFLDQRLILERLQVMYTVGYSLSLATLLLALLILSLFRRLHCTRNYIHINLFTSFMLRAAAILSRDRLLPRPGPYLGDQALALWNQALAACRTAQIVTQYCVGANYTWLLVEGVYLHSLLVLVGGSEEGHFRYYLLLGWGAPALFVIPWVIVRYLYENTQCWERNEVKVIWWIIRTPILMTILINFLIFIRILGILLSKLRTRQMRCRDYRLRLARSTLTLVPLLGVHEVVFAPVTEEQARGALRFAKLGFEIFLSSFQGFLVSVLYCFINKEVQSEIRRGWHHCRLRRSLGEEQRQLPERAFRALPSGSGPGEVPTSRGLSSGTLPGPGNEASRELESYC
As for B5, in the assay with GIPR A294V, the “Efficacy at 100pmol (cAMP)” value came to 0.6171. Also, in the assay on GIPR variants (groups) [1], the “In vitro groups (cAMP)” value is “WT-like_camp”; the percentage_camp is given as >50% cAMP; the “Beta, cAMP” value came out at 0.6171. In addition, in the assay on GIPR variants (groups) [2], the “In vitro groups (β-arrestin)” value is on record as “WT-like_arr” and the “Beta, Barr” value came to 0.6328.

(Values after paper PMC11272584 (Nature Metabolism, 2024).)
